Measurements: patent publication US20050100554A1 (published 2005)

Key:
CD164 = target: T1, CD164 (human, UniProt Q04900 24-197); experiment: Y2H; INT ID 31
T1 construct: also called cbe_3929669

nucleoporin 214 kDa = target: T2, nucleoporin 214 kDa (human, UniProt P35658 2-2090); experiment: Y2H; INT ID 29
T2 construct: also called NUP214; cbe_3590661

[1] = target: T3, rho/rac guanine nucleotide exchange factor (GEF) 2 (human, UniProt Q92974 28-986); experiment: Y2H; INT ID 30
T3 construct: also called ARHGEF2; cbe_3694420
T3 sequence: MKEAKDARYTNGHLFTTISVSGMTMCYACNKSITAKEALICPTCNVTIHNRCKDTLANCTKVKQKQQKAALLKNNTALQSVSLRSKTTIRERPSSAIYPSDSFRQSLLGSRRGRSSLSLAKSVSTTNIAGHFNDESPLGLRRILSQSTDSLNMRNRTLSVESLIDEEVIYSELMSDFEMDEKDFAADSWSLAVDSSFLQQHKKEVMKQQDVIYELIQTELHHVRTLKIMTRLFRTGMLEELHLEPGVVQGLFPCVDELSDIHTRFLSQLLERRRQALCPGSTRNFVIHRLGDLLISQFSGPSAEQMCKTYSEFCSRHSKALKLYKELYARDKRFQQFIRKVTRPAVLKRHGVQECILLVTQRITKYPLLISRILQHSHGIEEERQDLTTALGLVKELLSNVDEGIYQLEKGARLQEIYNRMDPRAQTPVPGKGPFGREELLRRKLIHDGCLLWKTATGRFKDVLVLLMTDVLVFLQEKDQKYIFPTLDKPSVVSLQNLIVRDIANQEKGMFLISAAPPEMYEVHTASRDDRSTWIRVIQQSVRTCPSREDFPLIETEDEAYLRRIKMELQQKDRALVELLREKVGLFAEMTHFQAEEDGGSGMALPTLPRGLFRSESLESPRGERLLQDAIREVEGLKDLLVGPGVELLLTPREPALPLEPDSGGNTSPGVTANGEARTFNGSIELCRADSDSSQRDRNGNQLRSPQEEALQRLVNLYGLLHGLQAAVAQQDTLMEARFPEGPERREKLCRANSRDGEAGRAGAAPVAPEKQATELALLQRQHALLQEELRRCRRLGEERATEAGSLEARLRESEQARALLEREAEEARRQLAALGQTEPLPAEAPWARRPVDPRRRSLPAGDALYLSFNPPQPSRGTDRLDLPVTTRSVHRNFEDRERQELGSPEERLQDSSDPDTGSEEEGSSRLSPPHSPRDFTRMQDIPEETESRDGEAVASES

GPRK5 = target: T4, GPRK5 (human, UniProt P34947 1-590); experiment: Y2H; INT ID 27
T4 construct: also called cbe_2541164
T4 sequence (P34947 whole entry): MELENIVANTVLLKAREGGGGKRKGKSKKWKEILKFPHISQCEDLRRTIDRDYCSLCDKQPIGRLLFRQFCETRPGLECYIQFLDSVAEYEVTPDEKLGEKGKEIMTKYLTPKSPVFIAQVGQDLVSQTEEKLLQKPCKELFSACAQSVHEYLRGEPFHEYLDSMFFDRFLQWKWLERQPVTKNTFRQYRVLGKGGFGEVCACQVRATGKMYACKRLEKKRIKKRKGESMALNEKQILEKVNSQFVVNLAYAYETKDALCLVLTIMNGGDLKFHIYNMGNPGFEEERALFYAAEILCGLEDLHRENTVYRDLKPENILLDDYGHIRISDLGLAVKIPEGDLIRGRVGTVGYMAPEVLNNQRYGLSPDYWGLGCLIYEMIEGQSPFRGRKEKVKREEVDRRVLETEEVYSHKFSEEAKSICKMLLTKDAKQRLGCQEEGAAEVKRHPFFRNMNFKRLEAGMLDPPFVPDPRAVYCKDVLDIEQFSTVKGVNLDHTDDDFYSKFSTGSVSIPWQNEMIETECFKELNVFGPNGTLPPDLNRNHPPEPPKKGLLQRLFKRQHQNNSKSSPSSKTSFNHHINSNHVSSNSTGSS

MAPK9 = target: T5, MAPK9 (human, UniProt P45984 1-424); experiment: Y2H; INT ID 32
T5 construct: also called cbe_4175362

Measured: binding result

T2 sequence (P35658 2-2090 limits assumed): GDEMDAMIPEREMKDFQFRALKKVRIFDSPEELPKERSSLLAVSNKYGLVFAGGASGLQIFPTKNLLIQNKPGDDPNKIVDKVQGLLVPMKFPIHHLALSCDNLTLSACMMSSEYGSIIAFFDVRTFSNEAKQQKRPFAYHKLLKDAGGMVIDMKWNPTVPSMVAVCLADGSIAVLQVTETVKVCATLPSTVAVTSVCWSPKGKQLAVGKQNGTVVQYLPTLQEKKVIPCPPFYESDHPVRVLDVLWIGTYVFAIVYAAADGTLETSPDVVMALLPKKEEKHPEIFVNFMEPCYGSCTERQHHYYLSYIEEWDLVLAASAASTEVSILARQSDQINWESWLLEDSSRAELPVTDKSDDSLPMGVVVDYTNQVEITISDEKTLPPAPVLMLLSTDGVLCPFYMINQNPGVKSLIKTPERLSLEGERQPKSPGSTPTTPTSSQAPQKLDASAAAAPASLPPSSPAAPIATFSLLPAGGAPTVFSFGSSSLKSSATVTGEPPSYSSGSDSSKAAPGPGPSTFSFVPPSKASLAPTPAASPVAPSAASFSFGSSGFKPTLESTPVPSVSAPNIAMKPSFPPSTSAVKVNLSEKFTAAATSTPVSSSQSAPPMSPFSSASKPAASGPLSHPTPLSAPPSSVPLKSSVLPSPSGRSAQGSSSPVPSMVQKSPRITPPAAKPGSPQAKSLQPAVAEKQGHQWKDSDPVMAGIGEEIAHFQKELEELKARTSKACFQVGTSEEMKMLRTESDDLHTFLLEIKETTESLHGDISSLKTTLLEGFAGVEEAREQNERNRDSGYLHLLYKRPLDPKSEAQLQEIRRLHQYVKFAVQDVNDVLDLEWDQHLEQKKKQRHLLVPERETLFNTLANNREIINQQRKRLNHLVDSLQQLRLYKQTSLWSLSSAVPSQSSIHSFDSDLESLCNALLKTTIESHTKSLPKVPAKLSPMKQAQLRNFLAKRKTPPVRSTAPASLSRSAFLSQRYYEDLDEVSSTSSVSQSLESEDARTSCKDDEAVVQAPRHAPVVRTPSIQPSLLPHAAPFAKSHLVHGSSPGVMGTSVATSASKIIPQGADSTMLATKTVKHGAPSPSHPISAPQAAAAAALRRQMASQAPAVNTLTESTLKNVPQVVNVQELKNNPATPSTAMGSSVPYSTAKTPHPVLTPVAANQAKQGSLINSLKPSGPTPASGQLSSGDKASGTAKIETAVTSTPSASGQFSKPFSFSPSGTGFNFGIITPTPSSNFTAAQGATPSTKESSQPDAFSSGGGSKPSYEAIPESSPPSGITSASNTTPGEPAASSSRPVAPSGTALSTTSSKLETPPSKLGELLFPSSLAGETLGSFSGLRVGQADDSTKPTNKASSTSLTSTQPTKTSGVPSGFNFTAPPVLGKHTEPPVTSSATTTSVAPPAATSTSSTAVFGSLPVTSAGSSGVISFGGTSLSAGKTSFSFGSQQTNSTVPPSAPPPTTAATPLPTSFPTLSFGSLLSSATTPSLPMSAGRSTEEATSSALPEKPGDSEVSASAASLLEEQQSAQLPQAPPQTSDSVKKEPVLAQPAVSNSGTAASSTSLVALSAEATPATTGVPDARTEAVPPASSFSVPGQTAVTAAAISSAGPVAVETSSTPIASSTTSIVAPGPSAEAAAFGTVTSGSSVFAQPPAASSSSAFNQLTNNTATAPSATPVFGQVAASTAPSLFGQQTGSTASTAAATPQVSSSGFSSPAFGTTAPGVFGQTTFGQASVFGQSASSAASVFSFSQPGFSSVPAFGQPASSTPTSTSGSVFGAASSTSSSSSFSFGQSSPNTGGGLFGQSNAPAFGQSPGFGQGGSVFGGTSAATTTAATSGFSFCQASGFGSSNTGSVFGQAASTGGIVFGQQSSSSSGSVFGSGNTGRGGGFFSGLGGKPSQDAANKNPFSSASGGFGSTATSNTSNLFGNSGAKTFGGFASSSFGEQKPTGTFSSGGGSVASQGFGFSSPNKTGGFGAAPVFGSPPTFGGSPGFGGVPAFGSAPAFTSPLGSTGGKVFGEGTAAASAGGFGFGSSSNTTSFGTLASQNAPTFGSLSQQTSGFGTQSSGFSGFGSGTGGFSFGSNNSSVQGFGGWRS
T1 sequence (Q04900 24-197 limits assumed): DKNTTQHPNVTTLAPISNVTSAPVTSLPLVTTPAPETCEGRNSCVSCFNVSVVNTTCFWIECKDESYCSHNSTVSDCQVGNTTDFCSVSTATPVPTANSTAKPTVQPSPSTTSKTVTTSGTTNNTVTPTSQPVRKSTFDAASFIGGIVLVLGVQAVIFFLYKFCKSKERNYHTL

B1: Human papillomavirus 11 E6 (other)
chain: MESKDASTSATSIDQLCKTFNLSLHTLQIQCVFCRNALTTAEIYAYAYKNLKVVWRDNFPFAACACCLELQGKINQYRHFNYAAYAPTVEEETNEDILKVLIRCYLCHKPLCEIEKLKHILGKARFIKLNNQWKGRCLHCWTTCMEDLLP
notes: also called HPV 11 E6; cbe_250808
binds: all assays above
